The text below walks through data of PMC5472440.

In data set [1] the test system is hIno80CTD (human). Put plainly: MST. The conditions noted are these: Hill coefficient 1.8 +/- 0.2, MST: 25 mM HEPES pH 8.0, 50 mM NaCl, 1 mM TCEP, 10% glycerol, 0.01% Tween-20, 0.1 mg/mL BSA, 25 C, EMSA: 25 mM HEPES pH 8.0, 50 mM NaCl, 0.5 mM …. In general terms: A gel shift assay detects complexes by their altered migration in electrophoresis.
The subject of data set [2] is hIno80CTD (human). As to the kind of experiment: EMSA. The note with it: Kd apparent, 50 nM DNA, MST: 25 mM HEPES pH 8.0, 50 mM NaCl, 1 mM TCEP, 10% glycerol, 0.01% Tween-20, 0.1 mg/mL BSA, 25 C, EMSA: 25 mM HEPES pH 8.0, 50 mM NaCl, 0.5 mM ….

The substance 50 bp duplex DNA gave a K half in the data set with hIno80CTD (human) [1] of 1000 nM. For the same substance, the Kd with hIno80CTD (human) [2] was 1000 nM.
